Experimental data: the RNAGym collection of RNA variant scans (doi:10.1093/molbev/msab373)

B1: Azoarcus group I ribozyme (parent)
chain: GUGCCUUGCGCCGGGAAACCACGCAAGGGAUGGUGUCAAAUUCGGCGAAACCUAAGCGCCCGCCCGGGCGUAUGGCAACGCCGAGCCAAGCUUCGGCGCCUGCGCCGAUGAAGGUGUAGAGACUAGACGGCACCCACCUAAGGCAAACGCUAUGGUGAAGGCAUAGUCCAGGGAGUGGCGAAAGUCACACAAACCGG

Variants of: B1
Experiment: reverse-splicing fitness (ratio to wild type); higher = more active; in vitro selection; Mg2+ level not given
Method in brief: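 An in vitro group I ribozyme library with randomized positions was T7-transcribed and gel-purified. In triplicate, 10 pmol RNA in EPPS pH 7.5 was reacted with 50 pmoles of a 30-nt RNA substrate for 1 h at 37 °C across several added MgCl2 levels (1–48 mM), then stopped with EDTA. Products were reverse transcribed from a substrate-complementary primer, PCR-amplified and sequenced (HiSeq 4000). Fitness is a variant's read proportion after selection over that before, normalised to wild type.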

Variant	reverse-splicing fitness
C82U A111C A120C C150G U176A	0.00528
C82U A111C A120C C150G U176G	0.00336
C82U A111C A120C C150G U176C	0.00787
C82U A111C A120U A145C C150U C169A	0.00253
C82U A111C A120U A145C C150U C169G	0.00293
C82U A111C A120G C150U C169A	0.00877
C82U A111C A120G C150U C169U	0.00841
C82U A111C A120G C150U C169G	0.00848
C82U A111C A120G A145U C150U C169A U176C	0.00758
C82U A111C A120G A145U C150U C169A U176G	0.00451
C82U A111C A120G A145U C150U C169A U176A	0.0111
C82U A111C A120G A145G C169U U176G	0.00411
C82U A111C A120G A145G C169U U176A	0.0161
C82U A111C A120G A145G C169U U176C	0.0125
C82U A111C A120C C150U C169G U176C	0.0153
C82U A111C A120C C150U C169G U176G	0.00553
C82U A111C A120C C150U C169G U176A	0.0121
C82U A111C A120G A145C C150G C169A U176A	0.00754
C82U A111C A120G A145C C150G C169A U176C	0.00509
C82U A111C A120G A145C C150G C169A U176G	0.00441
C82U A111C A120C C169U U176C	0.0145

Variant	reverse-splicing fitness
C82U A111C A120C C169U U176A	0.018
C82U A111C A120C C169U U176G	0.00583
C82U A111C A120C U176G	0.00517
C82U A111C A120C U176A	0.0154
C82U A111C A120C U176C	0.0215
C82U A111C A120G A145C C150G C169U U176G	0.0039
C82U A111C A120G A145C C150G C169U U176C	0.00897
C82U A111C A120G A145C C150G C169U U176A	0.00949
C82U A111C A120G A145C C150G	0.007
C82U A111C A120G A145C C150U	0.00818
C82U A111C A120G A145C C150A	0.00617
C82U A111C A120G A145U C150U C169G U176G	0.00453
C82U A111C A120G A145U C150U C169G U176C	0.0111
C82U A111C A120G A145U C150U C169G U176A	0.00992
C82U A111C A120G A145C C150U U176G	0.00354
C82U A111C A120G A145C C150U U176A	0.00933
C82U A111C A120G A145C C150U U176C	0.00988
C82U A111C A120G A145G C150U C169U U176G	0.00449
C82U A111C A120G A145G C150U C169U U176A	0.0152
C82U A111C A120G A145G C150U C169U U176C	0.0131
C82U A111C A120G A145C C150U C169U U176G	0.00401

Variant	reverse-splicing fitness
C82U A111C A120G A145C C150U C169U U176A	0.0137
C82U A111C A120G A145C C150U C169U U176C	0.0072
C82U A111C A120U A145C C150U C169A U176C	0.0025
C82U A111C A120U A145C C150U C169A U176G	0.00235
C82U A111C A120U A145C C150U C169A U176A	0.00213
C82U A111C A120G A145G C150A C169U U176A	0.0158
C82U A111C A120G A145G C150A C169U U176G	0.00519
C82U A111C A120G A145G C150A C169U U176C	0.0153
C82U A111C A120G A145G C150A U176G	0.00528
C82U A111C A120G A145G C150A U176A	0.0093
C82U A111C A120G A145G C150A U176C	0.017
C82U A111C A120U	0.0257
C82U A111C A120G	0.0151
C82U A111C A120C C169G U176A	0.0173
C82U A111C A120C C169G U176G	0.00563
C82U A111C A120C C169G U176C	0.0186
C82U A111C A120G A145C C150G C169G U176G	0.00437
C82U A111C A120G A145C C150G C169G U176A	0.00836
C82U A111C A120G A145C C150G C169G U176C	0.00632
C82U A111C A120C C150G C169U U176G	0.00565
C82U A111C A120G A145C C169G	0.00924

Variant	reverse-splicing fitness
C82U A111C A120G A145C C169A	0.0073
C82U A111C A120G A145C C169U	0.007
C82U A111C A120G C150G C169A U176A	0.0104
C82U A111C A120G C150G C169A U176C	0.00939
C82U A111C A120G C150G C169A U176G	0.0058
C82U A111C A120C C150U	0.0192
C82U A111C A120G A145U C150G C169G U176C	0.00446
C82U A111C A120G A145U C150G C169G U176G	0.00386
C82U A111C A120G A145U C150G C169G U176A	0.0063
C82U A111C A120U A145C C150G U176C	0.00485
C82U A111C A120U A145C C150G U176G	0.00239
C82U A111C A120U A145C C150G U176A	0.00275
C82U A111C A120U A145C C150A C169U	0.00301
C82U A111C A120U A145C C150A C169G	0.00233
C82U A111C A120U A145C C150A C169A	0.00255
C82U A111C A120G A145C U176G	0.00386
C82U A111C A120G A145C U176C	0.0128
C82U A111C A120G A145C U176A	0.0119
C82U A111C A120G A145U C169A	0.00767
C82U A111C A120G A145U C169U	0.00765
